These are literature values, as cited in article PMC12071684.

One may read the Kd as the free concentration of one partner at which half of the binding sites on the other are occupied at equilibrium, for simple one-to-one binding.

This series has as its target von Willebrand factor (Homo sapiens) (UniProt P04275).

Consider ADAMTS13 (from UniProt Q76LX8), for which the Kd is 20 nM.
